The target of the experiment is PKA regulatory subunit RIIα (human (endogenous in SK-Br-3)) (UniProt P13861). As to the kind of experiment: proximity ligation.

In publication PMC5651189 one finds decrease of CICF in SK.tDp^T39A against SK.empty cells and increase of CICF in SK.tDp against SK.empty cells data, which are given here for one substance.

Chain of PKA regulatory subunit RIIα (human (endogenous in SK-Br-3)) (P13861 whole entry): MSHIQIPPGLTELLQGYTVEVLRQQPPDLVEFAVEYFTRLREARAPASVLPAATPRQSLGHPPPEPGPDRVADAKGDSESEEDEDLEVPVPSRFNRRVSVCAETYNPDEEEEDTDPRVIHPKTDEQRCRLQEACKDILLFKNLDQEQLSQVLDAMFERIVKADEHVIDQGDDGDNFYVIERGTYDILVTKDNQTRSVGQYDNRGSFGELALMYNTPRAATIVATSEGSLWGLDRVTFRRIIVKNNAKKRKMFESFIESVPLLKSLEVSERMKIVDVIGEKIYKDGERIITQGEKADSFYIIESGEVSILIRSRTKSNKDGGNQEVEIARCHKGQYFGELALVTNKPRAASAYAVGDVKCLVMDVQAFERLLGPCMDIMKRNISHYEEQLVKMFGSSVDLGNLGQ

“PKA catalytic subunit (PKAc) (from UniProt P17612 1-351) (enzyme)” came in with a decrease of CICF in SK.tDp^T39A against SK.empty cells of 67% and an increase of CICF in SK.tDp against SK.empty cells of 36%.
